The record followed here is patent US20250011363A1, “OPTIMIZED SHORTENED PEPTIDE THAT BINDS TO ACETYLCHOLINE RECEPTOR, AND USE THEREOF” (SKINMED CO., LTD., priority 2021, published 2025).

The target of the experiment is acetylcholine receptor. Kind of experiment: SPR, AchR immobilized on CM5 chip, peptide at 10 µM. In general terms: SPR reads the build-up and loss of mass on a sensor chip optically.

In turn, KSQYK [5mer-429] yielded a Binding affinity (RU) of 63 RU.

The molecule RVRCK [5mer-132] had a Binding affinity (RU) of 83 RU. The value for RGLYR [5mer-427] was 87 RU; that for RRQLK [5mer-423] was 60 RU. Under KWRTK [5mer-430] stands 80 RU; under KWICK [5mer-422], 87 RU; under RWVTK [5mer-127], 86 RU.

In turn, KGQRK [5mer-133] came in with a Binding affinity (RU) of 84 RU. The molecule KSLLK [5mer-129] registered a Binding affinity (RU) of 63 RU. Molecule RQVTR [5mer-121] gave a Binding affinity (RU) of 73 RU.

As to RGVCR [5mer-128], the Binding affinity (RU) was 56 RU. RQFSK [5mer-134] returned a Binding affinity (RU) of 61 RU. The value for RQVRR [5mer-432] was 52 RU; that for RGVTK [5mer-126] was 61 RU. With KGFSK [5mer-124], the Binding affinity (RU) amounted to 58 RU. Regarding RVLQK [5mer-434], the Binding affinity (RU) was found to be 74 RU. In the case of RVYLK [5mer-424], the Binding affinity (RU) came out at 87 RU. Molecule KLRRR [5mer-131] registered a Binding affinity (RU) of 72 RU. With KWIRR [5mer-123], the Binding affinity (RU) was 53 RU.

For the molecule RQFLK [5mer-428], the Binding affinity (RU) came out at 86 RU. RSYQK [5mer-122]: the Binding affinity (RU) was determined as 78 RU. In turn, RVVYK [5mer-421] had a Binding affinity (RU) of 68 RU. As for KVQLK [5mer-431], the Binding affinity (RU) is 81 RU. As for RGFYR [5mer-425], the Binding affinity (RU) amounted to 80 RU. Take RRFRK [5mer-130]: the Binding affinity (RU) is 80 RU. The molecule RVRQK [5mer-125] returned a Binding affinity (RU) of 67 RU. Molecule KWRCR [5mer-433] came in with a Binding affinity (RU) of 73 RU. Under RRVSR [5mer-426] stands 57 RU.
